Reference: paper PMC12824264, “Endoglin as a BMP9 Co-Receptor in Vascular Endothelial Cells: Prodomain Displacement and TGFBRII Recruitment” (Nature communications, 2025)

B1: BMP9 growth factor domain (GFD) dimer (ligand, human, UniProt Q9UK05 320-429, looked up)
chain: SAGAGSHCQKTSLRVNFEDIGWDSWIIAPKEYEAYECKGGCFFPLADDVTPTKHAIVQTLVHLKFPTKVGKACCVPTKLSPISVLYKDDMGVPTLKYHYEGMSVAECGCR
notes: growth factor domain (GFD) of BMP9, the cut product of the proprotein; also called BMP9 GFD; source: bought: R&D Systems (BMP9 GFD); in the prodomain displacement assays released from pro:BMP9 made in HEK EBNA, purified
B2: monomeric soluble endoglin (full-length ENG extracellular domain), sENG(M) (domain or fragment, human, UniProt P17813 26-586, looked up)
chain: ETVHCDLQPVGPERGEVTYTTSQVSKGCVAQAPNAILEVHVLFLEFPTGPSQLELTLQASKQNGTWPREVLLVLSVNSSVFLHLQALGIPLHLAYNSSLVTFQEPPGVNTTELPSFPKTQILEWAAERGPITSAAELNDPQSILLRLGQAQGSLSFCMLEASQDMGRTLEWRPRTPALVRGCHLEGVAGHKEAHILRVLPGHSAGPRTVTVKVELSCAPGDLDAVLILQGPPYVSWLIDANHNMQIWTTGEYSFKIFPEKNIRGFKLPDTPQGLLGEARMLNASIVASFVELPLASIVSLHASSCGGRLQTSPAPIQTTPPKDTCSPELLMSLIQTKCADDAMTLVLKKELVAHLKCTITGLTFWDPSCEAEDRGDKFVLRSAYSSCGMQVSASMISNEAVVNILSSSSPQRKKVHCLNMDSLSFQLGLYLSPHFLQASNTIEPGQQSFVQVRVSPSVSEFLLQLDSCHLDLGPEGGTVELIQGRAAKGNCVSLLSPSPEGDPRFSFLLHFYTVPIPKTGTLSCTVALRPKTGSQDQEVHRTVFMRLNIISPDLSGCTSKG
notes: signal peptide in the construct; Expressed as a mixture of dimer and monomer; also called monomeric sENG; sENG-His; source: HEK EBNA, transfected (pCEP4), purified from conditioned medium (HisTrap excel, HiTrap Q HP, Superdex 200)
B3: dimeric soluble endoglin (full-length ENG extracellular domain), sENG(D) (domain or fragment, human, UniProt P17813 26-586, looked up)
chain: B2 chain
notes: signal peptide in the construct; Same construct as m1; It stays a dimer on non-reducing SDS-PAGE; also called dimeric sENG; sENG-His; source: HEK EBNA, transfected (pCEP4), purified from conditioned medium (HisTrap excel, HiTrap Q HP, Superdex 200)
B4: BMP10 growth factor domain (GFD) dimer (ligand, human, UniProt O95393 317-424, looked up)
chain: NAKGNYCKRTPLYIDFKEIGWDSWIIAPPGYEAYECRGVCNYPLAEHLTPTKHAIIQALVHLKNSQKASKACCVPTKLEPISILYLDKGVVTYKFKYEGMAVSECGCR
notes: growth factor domain (GFD) of BMP10, the cut product of the proprotein; One molecule is used for the bought GFD and for the GFD freed from pro:BMP10; also called BMP10 GFD; source: bought: R&D Systems (BMP10 GFD); in the prodomain displacement assays released from pro:BMP10 made in HEK EBNA (FURIN co-transfected), purified

Tests used:
Conditions in all cases: both partners purified
[1] = target: B3; assay: SEC; S200 10/300 gel filtration; sENG(M) at 6x or sENG(D) at 3x molar excess premixed with pro:BMP9 or pro:BMP10 for 30 min; fractions on non-reducing SDS-PAGE
[2] = target: B2; assay: native gel or EMSA; pro:BMP9 or pro:BMP10 pre-mixed with sENG(D), sENG(M), BMPRII ECD or ActRIIB ECD at stated molar ratios (from 0.3:1) in TBS, 8 ul, 30 min at room temperature; 10% native PAGE at 4 C; bands cut out and re-run on non-reducing SDS-PAGE
[3] = target: B1; assay: SEC; S200 10/300 gel filtration; sENG(M) at 6x or sENG(D) at 3x molar excess premixed with pro:BMP9 or pro:BMP10 for 30 min; fractions on non-reducing SDS-PAGE
[4] = target: B4; assay: as above
[5] = target: B1; assay: cross-linking; sENG(M) or sENG(D) with BMP9 or BMP10; crosslinker in PBS pH 7.4-8.0, 45 min at room temperature, quenched with 40 mM Tris; non-reducing SDS-PAGE
[6] = target: B4; assay: as above
[7] = target: B2; assay: SEC; analytical gel filtration; pro:BMP9 or pro:BMP10 pre-mixed with 0.3-fold sENG(M) or sENG(D)
[8] = target: B3; assay: as above

Binder: B1
- binding result [1]: binds
- binding result [2]: binds

Binder: B2
- stoichiometry N [3]: 1 sENG(M) per GFD dimer
- stoichiometry N [4]: 1 sENG(M) per GFD dimer

Binder: B3
- stoichiometry N [5]: 1 sENG(D) per GFD dimer
- stoichiometry N [6]: 1 sENG(D) per GFD dimer

Binder: B4
- binding result [7]: binds
- binding result [8]: binds
